According to the supplement of paper PMC9732359:
± gives the uncertainty stated by the source.

Test: protein stability index of a GFP-peptide fusion (yeast GPS) (PSI 1-4); higher = more stable; sorted into four equal gates, so the index is relative within each strain
Procedure, shortened: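 Tiled yeast protein peptides of 17 residues were each joined downstream of GFP, on plasmids that also express Cherry. The pooled library was maintained in yeast, and mid-log cultures in leucine-free medium were sorted into four equal gates on the GFP/Cherry ratio. Plasmids from every gate were amplified by PCR and sequenced on Illumina, with barcodes linking reads to strains. The protein stability index of a peptide is its gate-number-weighted read frequency summed over the gates.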

Sequence	protein stability index (doa10∆)	protein stability index (pdr5∆)	protein stability index (ubr1∆)	protein stability index (san1∆)
KLKYHDFLRKATAFNKT [RPL16A]	1.16 ± 0.13	1.24 ± 0.14	1.22 ± 0.15	–
FGSKPTGATSLFGSSNN [YGL172W/NUP49]	3.39 ± 0.11	3.59 ± 0.11	3.64 ± 0.1	3.54 ± 0.044
RPSFQNNRISNANEISA [SWP82]	2.22 ± 0.043	2.29 ± 0.047	2.47 ± 0.054	1.99 ± 0.082
YEQHIENIEPLDPINLP [PRP8]	2.38 ± 0.11	2.9 ± 0.091	2.8 ± 0.071	2.5 ± 0.1
AQQDSTNVRLYSLLLAS [ECM29]	2.27 ± 0.068	2.04 ± 0.052	2.43 ± 0.04	2.39 ± 0.047
TAIDKNGNITYSEEPRE [FAS2]	2.87 ± 0.069	3.29 ± 0.066	3.15 ± 0.073	3.12 ± 0.076
SFLDRKRAKEFITTLLK [SIN4]	2.35 ± 0.048	2.21 ± 0.06	2.08 ± 0.042	2.21 ± 0.061
LAYENKITDKEDLLHYI [POP4]	3.35 ± 0.15	3.31 ± 0.068	3.24 ± 0.088	3.2 ± 0.068
KLPLLNESLIPLINLAL [YML103C/NUP188]	1.69 ± 0.061	2.16 ± 0.068	1.98 ± 0.054	1.73 ± 0.079
NLPEEERKQIHEFKLIV [GRR1]	2.13 ± 0.29	3.35 ± 0.24	2.73 ± 0.13	–
SQRPGARILARSERKRT [ITC1]	3.14 ± 0.18	2.79 ± 0.17	2.98 ± 0.2	3.07 ± 0.21
QALEKIGIVEISPKGGR [RPS19A]	2.46 ± 0.15	2.74 ± 0.18	2.56 ± 0.15	2.2 ± 0.13
ASLKIKNATDLQQAKLR [SMC3]	3.11 ± 0.12	2.96 ± 0.11	3.09 ± 0.095	2.93 ± 0.13
LKSLNDIETQLCSMLQE [MED11]	2.54 ± 0.084	2.91 ± 0.079	3 ± 0.059	2.73 ± 0.11
ETFQDTFSGALGKQSSS [FAS2]	3.23 ± 0.063	3.32 ± 0.066	3.11 ± 0.055	3.15 ± 0.039
PHLLKQGLAMVEKYAPD [RRP42]	2.02 ± 0.13	2.35 ± 0.11	–	–
KNTLLERLKQLTPNEIK [SWP82]	2.8 ± 0.063	2.81 ± 0.065	2.68 ± 0.054	2.71 ± 0.046
ERLTNSLMMNGRNNGKK [RPS5]	2.98 ± 0.099	3.02 ± 0.088	2.62 ± 0.09	2.54 ± 0.071
SSKYAYMMNSQSPRGKI [YLR018C/POM34]	2.83 ± 0.062	2.69 ± 0.065	2.78 ± 0.038	2.75 ± 0.044
ICMESLFLEPSWSSSAA [PCI8]	–	2.86 ± 0.12	3.17 ± 0.11	2.63 ± 0.15
VMRNEIRITSLQGDLTF [SIR4]	2.8 ± 0.073	2.35 ± 0.062	2.68 ± 0.063	2.65 ± 0.081

Sequence	protein stability index (doa10∆)	protein stability index (pdr5∆)	protein stability index (ubr1∆)	protein stability index (san1∆)
IQLSTVNRQSPLFFVDL [RGR1]	1.59 ± 0.08	1.69 ± 0.094	1.76 ± 0.099	1.9 ± 0.12
PIFNYIFTEKIYKSIFN [YJL039C/NUP192]	1.33 ± 0.034	1.46 ± 0.04	1.16 ± 0.039	1.41 ± 0.074
LQKALTVKTNDELMVIY [RPN8]	2.33 ± 0.11	1.89 ± 0.067	2.65 ± 0.061	1.84 ± 0.13
REQSSNDSETHTEDEST [BRN1]	–	3.43 ± 0.27	–	–
FNVPVVSKQLGNGLVDE [YAR002W/NUP60]	–	3.66 ± 0.22	2.99 ± 0.14	3.26 ± 0.14
GTPLLEVRGQVPVIESA [SNU114]	1.62 ± 0.046	1.88 ± 0.052	1.95 ± 0.048	2.06 ± 0.093
VVEKEKIESLAGGGESD [UBP6]	3.35 ± 0.2	2.84 ± 0.24	3.34 ± 0.15	2.89 ± 0.19
EEVMRIALMGQDNKKIY [ESC2]	2.53 ± 0.07	2.72 ± 0.12	2.64 ± 0.051	2.2 ± 0.11
KFQGVLESEAQKKATMS [RPC34]	3.54 ± 0.18	3.01 ± 0.18	3.34 ± 0.11	–
VFLEFSLNFIPITASTS [YML103C/NUP188]	1.27 ± 0.068	1.34 ± 0.049	1.48 ± 0.038	1.62 ± 0.097
SLYIYYLIKLLGFEVKD [SIR2]	2.32 ± 0.12	2.13 ± 0.13	2.27 ± 0.15	2.31 ± 0.079
TTIDSLNAELESKLIPQ [SMC3]	3.06 ± 0.12	3.03 ± 0.085	3.1 ± 0.066	2.46 ± 0.14
FHGTSTKANDKNESATI [FAS2]	3.06 ± 0.12	2.8 ± 0.094	2.91 ± 0.1	2.95 ± 0.075
DTLDPALLRPGRLDRKV [RPT4]	3.02 ± 0.26	–	–	–
FLGEQVNEPTKNEEAEI [RPN1]	–	–	3.56 ± 0.26	–
SIRAEAVAASSTKTGTP [POP1]	3.48 ± 0.15	3.21 ± 0.1	2.9 ± 0.069	3.08 ± 0.077
NLLKDEGVTPGRIRTTR [SSN3]	3.1 ± 0.26	2.87 ± 0.23	–	3.26 ± 0.12
ASLKKMEETEQKKIQIN [SMC3]	2.33 ± 0.22	1.82 ± 0.076	2.23 ± 0.11	3.1 ± 0.13
GKGNTFEKVGSHLYKAR [RPN14]	2.93 ± 0.25	2.81 ± 0.14	3.27 ± 0.13	–
LANNVESKLRDDLERLK [RPS18A]	3.45 ± 0.16	3.27 ± 0.16	3.41 ± 0.049	2.97 ± 0.24
